One substance from paper doi:10.1101/2025.04.09.647960 can be followed below.

The target in the assay is WT myostimulin (human C1orf54, residues 17-131) (human) (UniProt Q8WWF1). Kind of assay: RP-HPLC-MS.

As for “WT myostimulin (human C1orf54, residues 17-131) (from UniProt Q8WWF1 17-131) (natural protein)”, the stoichiometry N (as a rule, a count of units in the complex or per binding partner) stood at 2.
